Reference: the supplement of paper PMC7125110
± gives the standard error. Variants at the floor of the assay were thinned out.

B1: glmS ribozyme (parent)
chain: AUAAAAGCGCCAGAACUACAGAAAUGUAGUUGACGAGGAGGAGGUUUAUCGAAUUUUCGGCGGAUGCCUCCAAA

Key:
Settings in all cases: with glucosamine-6-phosphate
glucosamine-6-phosphate [1] = variants of: B1; assay: self-cleavage kobs at 160 uM GlcN6P; higher = faster cleavage; RNA array
Summary of the method: (§1)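 kcat and KM were obtained from weighted Michaelis–Menten fits across concentrations of kobs values. Those came from one- or two-exponential decay fits to per-tile medians normalised to baseline and to non-cleaving reference variants. The variants were barcoded ribozymes transcribed in situ by E. coli RNA polymerase on sequenced MiSeq chips and tracked through a hybridised Cy3 probe at 37 °C, with 40 μM to 10 mM glucosamine-6-phosphate in HEPES/KCl/Mg(OAc)2 buffer flowed in.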

glucosamine-6-phosphate [2] = variants of: B1; assay: self-cleavage kobs at 640 uM GlcN6P; higher = faster cleavage; RNA array
Summary of the method: as §1

glucosamine-6-phosphate [3] = variants of: B1; assay: self-cleavage kobs at 2500 uM GlcN6P; higher = faster cleavage; RNA array
Summary of the method: as §1

glucosamine-6-phosphate [4] = variants of: B1; assay: self-cleavage kobs at 10000 uM GlcN6P; higher = faster cleavage; RNA array
Summary of the method: as §1

Variant	self-cleavage kobs at 160 uM GlcN6P (glucosamine-6-phosphate [1]) [s⁻¹]	self-cleavage kobs at 640 uM GlcN6P (glucosamine-6-phosphate [2]) [s⁻¹]	self-cleavage kobs at 2500 uM GlcN6P (glucosamine-6-phosphate [3]) [s⁻¹]	self-cleavage kobs at 10000 uM GlcN6P (glucosamine-6-phosphate [4]) [s⁻¹]
U49A A52U U65A U69G	7.53e-05 ± 2.4e-05	0.00031 ± 0.00012		
A6C G38C	< 1e-05	< 1e-05		
C8U U31G G44U C71G	< 1e-05	< 1e-05		
G7U G37A A48C	< 1e-05	< 1e-05	< 1e-05	< 1e-05
C8A C10G C34A	< 1e-05	< 1e-05	< 1e-05	
A36G C58A G60A	< 1e-05	< 1e-05		< 1e-05
G41C U46G U57C	< 1e-05	< 1e-05	< 1e-05	
G9U G29C	< 1e-05	< 1e-05	< 1e-05	< 1e-05
U31C U54C C67U	8.1e-05 ± 1.6e-05	0.000176 ± 3.7e-05	0.000804 ± 0.0002	
G32C U47A G62C A64G	< 1e-05	< 1e-05	< 1e-05	
A42U U55A G60A C71G	< 1e-05	< 1e-05	< 1e-05	
C8G G13A U54A G62A	< 1e-05	< 1e-05		
C10U U56A G62A U65A U69G	3.94e-05 ± 1.6e-05			
G59U G60A	< 1e-05	< 1e-05		
G9U A42G U46G	< 1e-05	< 1e-05		
U46G U49A C50A A64G	< 1e-05	< 1e-05		
C11G G63U	< 1e-05		< 1e-05	< 1e-05
A12C U65G	0.000115 ± 2.1e-05	0.000543 ± 8.2e-05	0.00157 ± 0.00024	
G44U U65G C70G	< 1e-05		< 1e-05	
A6C C8A U31C	< 1e-05		< 1e-05	
C50A C70G	0.001 ± 0.00045	7.68e-05 ± 1.2e-05	6.7e-05 ± 8.5e-06	
A12G G29A G41C	< 1e-05	< 1e-05	< 1e-05	< 1e-05
C58G C67G	5.68e-05 ± 1.1e-05	0.000101 ± 1.3e-05	5.23e-05 ± 1e-05	1.83e-05 ± 8.7e-06
G38U A42U G62U	< 1e-05	< 1e-05	< 1e-05	
G37A G38U U65C	< 1e-05			< 1e-05
C16U U47A A53G U54A	0.00109 ± 0.00027	0.00231 ± 0.00054	0.00464 ± 0.00094	

Variant	self-cleavage kobs at 160 uM GlcN6P (glucosamine-6-phosphate [1]) [s⁻¹]	self-cleavage kobs at 640 uM GlcN6P (glucosamine-6-phosphate [2]) [s⁻¹]	self-cleavage kobs at 2500 uM GlcN6P (glucosamine-6-phosphate [3]) [s⁻¹]	self-cleavage kobs at 10000 uM GlcN6P (glucosamine-6-phosphate [4]) [s⁻¹]
G41C G66U	< 1e-05	< 1e-05		
C34U C61G	< 1e-05	< 1e-05		< 1e-05
G13A C50G	0.000122 ± 3.1e-05	0.000253 ± 0.00011	4.08e-05 ± 1.9e-05	
G9U C68G	< 1e-05		< 1e-05	< 1e-05
A6C A15U	< 1e-05			
G37U C70U C71A	< 1e-05			
G44U G63U	< 1e-05	< 1e-05	< 1e-05	< 1e-05
G66C C68G	0.000523 ± 0.00015			
G9A C34A G59C	< 1e-05	< 1e-05	< 1e-05	
G38U G40U A53C C61G A64G C68A	< 1e-05	< 1e-05		
A14C A36G C58U	< 1e-05			
G40C G63A	< 1e-05	< 1e-05	< 1e-05	< 1e-05
C34U G41C G66U	< 1e-05	< 1e-05	< 1e-05	
A6U C8A C16A	< 1e-05			
A12C A36G U69C	< 1e-05			
A36C G41U	< 1e-05	< 1e-05	< 1e-05	< 1e-05
A36U G44A U55A	< 1e-05		< 1e-05	
A12U U56G U57G C58A A64G	5.96e-05 ± 2.1e-05	0.000137 ± 2.4e-05	5.56e-05 ± 2.7e-05	
A15U A52U C58A C70U	< 1e-05			
A6C C34U U56C	< 1e-05			
C8G C11G U54A	< 1e-05		< 1e-05	
G38U A52U	< 1e-05	< 1e-05		< 1e-05
G38C G41U G63C	< 1e-05		< 1e-05	
G40C A48U C61U	< 1e-05	< 1e-05		
A15U G38U G59U	< 1e-05			
A6G U30G C34G	< 1e-05			

Variant	self-cleavage kobs at 160 uM GlcN6P (glucosamine-6-phosphate [1]) [s⁻¹]	self-cleavage kobs at 640 uM GlcN6P (glucosamine-6-phosphate [2]) [s⁻¹]	self-cleavage kobs at 2500 uM GlcN6P (glucosamine-6-phosphate [3]) [s⁻¹]	self-cleavage kobs at 10000 uM GlcN6P (glucosamine-6-phosphate [4]) [s⁻¹]
U46G U56G C70U	0.000211 ± 5.3e-05	0.000436 ± 9.2e-05	0.00119 ± 0.00031	
C8G G37A	< 1e-05	< 1e-05	< 1e-05	
C10U U30C	< 1e-05		< 1e-05	
A6C C8A C67A	< 1e-05	< 1e-05	< 1e-05	< 1e-05
C16G G29C A33U A48C	< 1e-05	< 1e-05		
A6G G43U U65C	< 1e-05	< 1e-05	< 1e-05	
G7C C16U G44U	< 1e-05			
A33U U54G U56G C61G U69C	9.03e-05 ± 2.7e-05	0.00035 ± 0.00013	0.000171 ± 6e-05	
G63A C67U	< 1e-05			
G40U G51U C58U	< 1e-05			
G35A G43U C50G A64G	< 1e-05			
C8A G60A C68A	< 1e-05		< 1e-05	
U31G G35C U46A C70G	< 1e-05	< 1e-05	< 1e-05	
G29C U31C A33C A36C A53U	< 1e-05		< 1e-05	
C10U G37A G63A	< 1e-05	< 1e-05	< 1e-05	
C11G G29U U69G	0.000155 ± 3.5e-05	0.000133 ± 3.6e-05		
G13U G41U C61G C71G	< 1e-05	< 1e-05	< 1e-05	
G29U G32C A36G	< 1e-05	< 1e-05		
G9U C16U G29A U45A U54C	< 1e-05			
C8A G29C C50U	< 1e-05		< 1e-05	
A12U U56G G66C	0.000132 ± 3.1e-05	0.000374 ± 9e-05	0.000708 ± 0.00017	
C11G C67A C71G	4.73e-05 ± 1.9e-05	0.000132 ± 3.5e-05	0.000135 ± 4.2e-05	
G41A G62C	< 1e-05	< 1e-05	< 1e-05	
G9U G40U U46G G62C	< 1e-05	< 1e-05	< 1e-05	
A53C G60U A64U U65G	< 1e-05	< 1e-05		
A53G A64U U69G	0.000191 ± 6.9e-05	0.000772 ± 0.00022	0.000517 ± 0.00019	

Variant	self-cleavage kobs at 160 uM GlcN6P (glucosamine-6-phosphate [1]) [s⁻¹]	self-cleavage kobs at 640 uM GlcN6P (glucosamine-6-phosphate [2]) [s⁻¹]	self-cleavage kobs at 2500 uM GlcN6P (glucosamine-6-phosphate [3]) [s⁻¹]	self-cleavage kobs at 10000 uM GlcN6P (glucosamine-6-phosphate [4]) [s⁻¹]
A14C A42C C70G	< 1e-05			
U47A G63C	< 1e-05	< 1e-05	< 1e-05	
G37A A42C U46C	< 1e-05		< 1e-05	
G13U G37A A53C G60U C67G	< 1e-05	< 1e-05	< 1e-05	
A6U G7U G35U U54A	< 1e-05	< 1e-05	< 1e-05	
G7A G32U C34U	< 1e-05			
A15G U55A G62U G63C	< 1e-05	< 1e-05		
U30C U69A	5.29e-05 ± 1.5e-05	0.000111 ± 3e-05	5.71e-05 ± 1.2e-05	2.76e-05 ± 6.9e-06
A1U U2G A3G A5U A14C U69C	5.02e-05 ± 1.8e-05	0.000257 ± 6e-05	0.000526 ± 0.00012	
C11U C61A C67G	7.27e-05 ± 2.3e-05	8.2e-05 ± 3.6e-05	7.14e-05 ± 3.3e-05	
A6U G29A U54G	< 1e-05			
G35C A36G U49A	< 1e-05	< 1e-05	< 1e-05	
G32U G51U A53U G66U C71U	< 1e-05	< 1e-05	< 1e-05	
G9U C11U C34A G43U C61A C67G	< 1e-05			
C11G G35A C58G	< 1e-05	< 1e-05	< 1e-05	
G9A C50A	< 1e-05	< 1e-05	< 1e-05	< 1e-05
C10A A12G C16A U47C G63A C67G	< 1e-05	< 1e-05		
G37C G43C U47C	< 1e-05		< 1e-05	
C8G U46C A53C	< 1e-05		< 1e-05	
U2C C16G A53C	4.66e-05 ± 1.6e-05	0.000137 ± 1.9e-05	0.000285 ± 4.6e-05	
G13U C34A G40U C58A	< 1e-05	< 1e-05		
A12U C16U U54A	0.00397 ± 0.00072	0.00766 ± 0.0025		
U45C C50G G51A A53U G60C	< 1e-05	< 1e-05	< 1e-05	
C11G U31A U47G	< 1e-05			
A12G G40A A42C	< 1e-05		< 1e-05	
G43C A52C U57C	< 1e-05	< 1e-05		
